These results are taken from the nanobody polyreactivity screen of Harvey et al. (2022).

This data set can be described thus: yeast display, Sf9 membrane polyspecificity reagent, FACS + sequencing; frameworks hold sequencing errors. The method in brief: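 A synthetic nanobody library was expressed on Saccharomyces cerevisiae BJ5465 by galactose induction for 36–48 hours. The library was stained for 1 hour at 4 °C with 10% biotinylated, detergent-solubilized Sf9 membrane reagent and enriched with streptavidin microbeads before FACS. Low and high (top ~1%) gates were set on anti-HA fluorescence for expression and streptavidin fluorescence for reagent binding, and each polyreactivity label reflects the gate of origin.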
Take “QVQLVESGGGLYQAGGSLRLSCAASGRIFYCYAMGSYRQAPGKERELVAAISWRGGRTYYADSVKGRFTISRDNAKNTVYLQMNSLIPEDTAVYYCNTDFPPQGQLRNMSYWGQGTQVTVSS”: the “polyreactivity (PSR sort gate)” value was “high polyreactivity”. Then “QVQLVESGGGSVQAGGRLRLSCAASGSIFGQYAMGWYRQAPGKERELVAAISDTDSTNYADSVKGRFTISRDNAKNTVYLQMNSLKPEDTAVYYCNADTWGYRLGYYYYKFDYWGQGTQVTVSS”, with “low polyreactivity”; and “QVQLVESGGGSVQAGGSLRISCAASGSIFSLYAMGWYRQAPGKERELVASISSDGSTYYADSVKGRFTISRDNAKNTVYLQMNSLKPEDTAVNYCATAVYSRYSPYAGYYYWGQGTQVTVSS”, with “low polyreactivity”. Take “QVQLVESGGGSVQAGGSLRLCCAASGRILESYAMGWYRQAPGKERELVAAINSGASTYYADSVKGRFTISRDNAKNTVYLPMNSLKPEDTAVYYCAADYRYGAYDDWGQGTQVTVSS”: the “polyreactivity (PSR sort gate)” value is “low polyreactivity”. Then “QVQLVESGGGSVQAGGSLRLSCAASGIIFWYYTMGWYRQATGKERELVAAISWSSGITYYADSLKGRFTISRDNAKNTVYLQMNSLKPEDTAVYYCSAGYYKGFTLVRVIFDYWGQGTQVTVSS”, with “low polyreactivity”; and “QVQLVESGGGSVQAGGSLRLSCAASGITSYGYAMGWYRQAPGKERDLVASISRTGGNTYADSVKGRFTISRDNAKNTVYLQMNSLKPEDTAVYYCNAGRSWDYWYGYDYWGQGTQVTVSS”, with “low polyreactivity”; and “QVQLVESGGGSVQAGGSLRLSCAASGRTFVRYAMGWYRQAPGKERELVAAITWSGGSTYYADSVKGRFTISRDNAKNTVYLQMNSLKPEDTAVFNCADYPVQWGSLYDYWGQGTQVTVSS”, with “high polyreactivity”. Then “QVQLVESGGGSVQAGGSLRLSCAASGSTIRYYAMGWYRQAPGKERELVARITSRAGRTYYADSVKGRFTISRDNAKNTVYLQMNSLKPEDTAVYYCNTRDFSGYVHALSLYDYWGQGTQVTVSS”, with “high polyreactivity”; and “QVQLVESGGGSVQAGGSLRLSCAASGYIFGVYAMGWYRQAPGKERELVAAISSGGSTNYADSVKGRFTISRDNAKNTVYLQMNSLKPEDTAVYYCNADYIFYYEYDYWGQGTQVTVSS”, with “low polyreactivity”; and “QVQLVESGGGVGQAGGSLRLSCAASGLSCVDYAMGWYRQAPGKERELVAAISTTGGSTYYADSVKGRFTISRDNAKNTVYLQMKSLKPEDTAVYYCNARFVHHSWGTNYYWGQGTQVTVSS”, with “high polyreactivity”. Then “QVQLVESGGGVVQAGGSLRFSCAASGSIFPGYAMGWYRQAPGKEREMVATITWSGGTTYYADSVKGRFTISRDYAKNTVYFQMNSLKPEDTAVYYCNATFGYPFLDYDDYWGQGTQVNVSS”, with “low polyreactivity”; and “QVQLVESGGGVVQAGGSLRISCAASRLIFRRNAMGWYGQAPGKERELVAAISRTGGSTYDADSVKGRFTISRDNAKNPVYLQRNSLIPEDTAVYYCATDTRDYDYTDEYWGHGTQVTVSS”, with “low polyreactivity”; and “QVQLVESGGGVVQAGGSLRLSCAASGFIFSYNVMVWYRQAPGKERELVAAISSSGGSTYYADSVKGRFTISRDNAKNTAYLQMNSLKPEDTAVYYCATRVSRSFRAYDYWGQGTQVTVSS”, with “high polyreactivity”. Take “QVQLVESGGGVVQAGGSLRLSCAASGFIYRWNAMGLNRQAPGKERELVAAMSARGGSTYDADSVKGRFTIARDNAKNTVYLPMNSLKPEDTAVYYCARAKRVHTEYDYWGQGTQVTVSS”: the “polyreactivity (PSR sort gate)” value is “high polyreactivity”.

Turning to “QVQLVESGGGVVQAGGSLRLSCAASGITFNGNAMGWYRQAPGKERELVATISRSDGRTYYADSVKGRFTISRDNAKNTDYFQMNSLKPEDTAVYYCAAYTTRPYWGQGTQVTVSS”, the “polyreactivity (PSR sort gate)” value is “high polyreactivity”. Then “QVQLVESGGGVVQAGGSLRLSCAASGLIFRRYAMGWYRQAPGIERELVAAISGNGGSTYYADSVKGRFTISRDKAKNTVYVQMNCLKPEDTAVYYCAARSLGIYNYWGQGTQVTVSS”, with “high polyreactivity”. Then “QVQLVESGGGVVQAGGSLRLSCAASGRICAYYTMGWYRQAPGKERELVAAINQSGGSTYYADSVKGRFTISRDNAKYTEYLQMNSLKPEDTAVFYCAAQPTIYSTPHPEYNYWGQGTQVNVSS”, with “low polyreactivity”; and “QVQLVESGGGVVQAGGSLRLSCAASGRIFARYTMGWYRQAPGKEREFVAGIRSSGGRTYYADSVKGRFTISRDTAKNTVYLQMNSLKPEDSAVYYCNAGGSWYFARYDYWGEGTQVTVSS”, with “low polyreactivity”.

Take “QVQLVESGGGVVQAGGSLRLSCAASGRIFVYYMGWYRQAPGKERVLVAAISVGGGSTYYADSVKGRFTISRDHAKNTVYLQMNSLKPEDTAVYYCAAAWSNYFGDPSYYWGQGTQVTVSS”: the “polyreactivity (PSR sort gate)” value is on record as “low polyreactivity”. Then “QVQLVESGGGVVQAGGSLRLSCAASGRIFYYNARGWYRQAPGKERELVAVISRNGGRTYYADSVKGRFTISRDNAKITVYLQMNSLKPEDTAVYYCAARSAGDRYDYWGQGTQVTVSS”, with “high polyreactivity”. Then “QVQLVESGGGVVQAGGSLRLSCAASGRINARYAMGWYRQAPGKERELVAAITSGGGTYYADSVKGRFTISRDNAKNTVYLQMNSLKPEDTAVYYCAARWLSRGYEYYYWGQGTQVTVSS”, with “high polyreactivity”. Then “QVQLVESGGGVVQAGGSLRLSCAASGRTFKPYAMGWYRQAPGKERELVAAISSGVSTHYADSVKGRFTISRDNAKNTVYLQMNSLKPEDTAVYYCAADYWVNYWFDYWGQGTQVTVSS”, with “low polyreactivity”. With “QVQLVESGGGVVQAGGSLRLSCAASGRTFMVNAMGWYRQAPGKERELVAAISQRGGSTDYADSVKGRFTISRDNAKNTVYLQMNSLIPEDTAVYYCAADSLRGSAPTYYSTLEYWGQGTQVTVSS”, the “polyreactivity (PSR sort gate)” value is “low polyreactivity”. Then “QVQLVESGGGVVQAGGSLRLSCAASGRTFSYNALGWNRQAPGKEREVVAAINGDGGSTYYADSVKGRFTSSRDNAKNTVYLQMNSLKPEDTAVYYCNRRGIYRYGYWGQGTEVTVSS”, with “high polyreactivity”. Then “QVQLVESGGGVVQAGGSLRLSCAASGSIFLYIYAKGWYRHAPGKERELVATINWDGGSTYYADSVKGRFTISRDNAKNTVYLQMNSLKPEDTAVYYCAADWYYSYYFYRFDYWGQGTQVTVSS”, with “low polyreactivity”; and “QVQLVESGGGVVQAGGSLRLSCAASGSIFYVYSMGWYRQAPGKERELVAAISRSGTNTYYADSVKGRFTISRDNAKNTVYLQMNSLKPEDTAVYYCNADAAYLVTQPYDDNYDYWGQGTQVTVSS”, with “low polyreactivity”. In the case of “QVQLVESGGGVVQAGGSLRLSCAASGSIVYSYAMGWYRQAPGKERELVARIRWGGGRTYYADSVKGHFAISRDNAKNTVYLQMNSLKPEDTAVYYCAASYVYPASFHYYYWGQGTQVTVSS”, the “polyreactivity (PSR sort gate)” value is reported as “high polyreactivity”. Then “QVQLVESGGGVVQAGGSLRLSCAASGSTFDVYAMGWYRPAPGKERELVAAITSGGTTNYADSVKGRFTISRDNAQNTVYLQLNSLKPEDTAVYYCAADSPWGGGYFVLYNYWGQGTQVTVSS”, with “low polyreactivity”; and “QVQLVESGGGVVQAGGSLRLSCAASGSTFRTNAMGWYRQAPGKERELVAAITSTGGSTYYADSVKGRFTISRDNAKNTVYLQMNSLKPEDTAVYYCAAYYVPGYYYWGQGTQVTVSS”, with “high polyreactivity”. Then “QVQLVESGGGVVQAGGSLRLSCAASGSTFRYNARGWYRQAPGKEREFVAAITTSGVRTYYADSVKGRFTISRDNAKNTVYLQMNSLKPEDTAVYYCARRTPGTRWNYDYWGQGTQVTVSS”, with “high polyreactivity”.
